Consider three molecules from US7858084B2, “Methods of treatment with renalase (monoamine oxidase C)” (Yale University, priority 2005, dated 2010).

Data set [1] is described as follows: amine oxidase activity in vitro of renalase isolated from blood and urine. As to conditions: basal conditions. It is filed as biochemical, human. From the text:
We have tested renalase isolated from blood and urine.

In data set [2] the test system is isolated perfused mouse heart. Description: isolated perfused mouse heart model of ischemia-reperfusion. From the text: Since renalase can metabolize catecholamines, we tested whether it could protect against ischemic myocardial damage.
Data set [3] in a line: blood pressure and heart rate in conscious mice. It is filed as in vivo. The method, then:
We also tested the effect of renalase on blood pressure and heart rate in conscious mice. Recombinant renalase was prepared using the method described in Example 3 of PCT/US05/009248, which is specifically and completely incorporated herein by reference. As explained in more detail therein, the recombinant protein made in E. coli as used in the examples herein is refolded before administration. Thus, the recombinant renalase protein as used herein is in the active form (i.e., it is active renalase as defined above).
The recombinant protein was given by tail vein injection (100 μg) or retroorbital injection (1 mg) and ambulatory blood pressure and heart rates were measured continuously for 24 hours.

A short description of data set [4]: infusion of recombinant renalase into rats. It is filed as in vivo.

“Also recorded” adds a separate entry of the source.

B1: protein isolated from human blood: native renalase isolated from human blood under basal conditions (protein, UniProt Q5VYX0 18-342, looked up)
Renalase: ALLRRQTSGPLYLAVWDKAEDSGGRMTTACSPHNPQCTADLGAQYITCTPHYAKKHQRFYDELLAYGVLRPLSSPIEGMVMKEGDCNFVAPQGISSIIKHYLKESGAEVYFRHRVTQINLRDDKWEVSKQTGSPEQFDLIVLTMPVPEILQLQGDITTLISECQRQQLEAVSYSSRYALGLFYEAGTKIDVPWAGQYITSNPCIRFVSIDNKKRNIESSEIGPSLVIHTTVPFGVTYLEHSIEDVQELVFQQLENILPGLPQPIATKCQKWRHSQVTNAAANCPGQMTLHHKPFLACGGDGFTQSNFDGCITSALCVLEALKNYI
For the molecule B1, in data set [1], the “amine oxidase activity in vitro” value is recorded as “no significant amine oxidase activity”.

B2: renalase isolated from human urine: native renalase isolated from human urine (protein, UniProt Q5VYX0 18-342, looked up)
Renalase: ALLRRQTSGPLYLAVWDKAEDSGGRMTTACSPHNPQCTADLGAQYITCTPHYAKKHQRFYDELLAYGVLRPLSSPIEGMVMKEGDCNFVAPQGISSIIKHYLKESGAEVYFRHRVTQINLRDDKWEVSKQTGSPEQFDLIVLTMPVPEILQLQGDITTLISECQRQQLEAVSYSSRYALGLFYEAGTKIDVPWAGQYITSNPCIRFVSIDNKKRNIESSEIGPSLVIHTTVPFGVTYLEHSIEDVQELVFQQLENILPGLPQPIATKCQKWRHSQVTNAAANCPGQMTLHHKPFLACGGDGFTQSNFDGCITSALCVLEALKNYI
B2: in data set [1], the “amine oxidase activity in vitro” value was “metabolizes catecholamines”.

B3: renalase: recombinant renalase protein made in E. coli, refolded before administration; secreted FAD-containing monoamine oxidase of the kidney (protein)
chain: ALLRKEITAPLYLALWDKAGDIGGRMTTANSPHNPRCTADLGAQYITCTPHYAKKHQNFYEELLAHGILEPLTSPIKGMEVKEGESNFVAPHGVSSIIKYYLKESGAEVFLRQCVTQINLRDNKWEVSEDTGSTQQFDLVILTMPAPQILGLQGDIVNLISERQRQQLASVSYSSRYALGLFYEAGMKIDVPWAGQYITSNPCIRFISIDSKKRNTESSECGPLLVVHTTVPFGVTHLEHSEEDVQELITQQLETILPGLPPPVATKCWKWRYSQVTNSAANSPGQMTLHLNPFLIYI
As to B3, in data set [2] (infusion from 10 minutes before 15 min global ischemia until 2 hours after reperfusion, versus control protein glutathione synthase), the “myocardial (left ventricular) function” value is “preserved myocardial function significantly better; also recorded: preserves left ventrical (LV) function”. The “decrease of myocardial necrosis” value in data set [2] (ischemia-reperfusion, n=3, p<0.001) is 54%. Besides, the mean blood pressure result in data set [3] (100 μg by tail injection) was “remained unchanged”. For the same molecule, the “minute-to-minute variability in blood pressure” value in data set [3] (100 μg by tail injection, conscious mice) is “decreased”. The heart rate entry is “significantly increased” in data set [3] (100 μg by tail injection, for several hours); “significant and long-lasting fall” in data set [3] (1 mg by retroorbital injection); “lower” in data set [4]. Also, the blood pressure entry in data set [3] (1 mg by retroorbital injection) was “significant and long-lasting fall”; in data set [3] (continuous infusion by tail vein, 20 μg/minute, during the period of infusion), “reduction in blood pressure”; in data set [4], “reduction”. The “reversibility of the blood pressure effect” value in data set [3] (continuous IV infusion, after stopping) is on record as “reversible”.
